Target: F-actin from rabbit skeletal muscle G-actin (rabbit) (UniProt P68135)
Experiment: cryoEM images and 2D image averages; 0.83 uM full-length myosin-5a, 3.6 uM calmodulin, 2.1 uM F-actin, 0.20 mM ATP, 95 mM KCl, 48 uM MgCl2, 0.12 mM EGTA, 10 mM MOPS pH 7.0, 22 °C; applied within 10 s to a lacey carbon grid and flash frozen

- percent of the added myosin attached to actin: < 10%
Substance: full-length mouse myosin-5a, melanocyte-specific isoform, with calmodulin (from UniProt P0DP23 1-149) (complex)
